The nanobody polyreactivity screen of Harvey et al. (2022)

Test: yeast display, Sf9 membrane polyspecificity reagent, FACS + sequencing; frameworks hold sequencing errors
Outline: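 After 36–48 hours of galactose induction, yeast (Saccharomyces cerevisiae BJ5465) displaying a synthetic nanobody library were stained at 4 °C for 1 hour with 10% biotinylated, detergent-solubilized Sf9 membrane reagent. Streptavidin microbeads enriched the stained cells before FACS sorting into low and high (top ~1%) gates on anti-HA and streptavidin fluorescence. Each clone's polyreactivity label reflects its gate of origin.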

| Sequence | polyreactivity (PSR sort gate) |
| --- | --- |
| QVQLGESGGGLVQAGGSLRLSCVASGFIFRGNAMGWYRQAPGKERELVATISSGGNTYYADSVKGRFTISRDNAKNTVYLQINSLKPEDTAVYYCNASDGLPTKLNVYVEFDYWGQGTQVTVSS | low polyreactivity |
| QVQLVESGGGLVQAGGSLRLSCAASGSIFISYVMGWYRQAPAKERELVASISWSGGSTYYADSVKGRFTISRDNAKNTVYLQMNSLKPEDTAVYYCAADRLVRIRSYRDLGYWGQGTQVTVSS | high polyreactivity |
| QVQLVESGGGLVQGGGSLRLSCADSGRTSDGYPMRWYRQATGKERELVAVITEGGGDTYYADSVKGRFTISRDHSKNTVYLKMNSLKPEDSAVYYCNAVEGSRLTYDYWGQGTQVTVSS | low polyreactivity |
| QVQLVESGGGLVQAGGSRRLSCAASGFTFQDYAMGWYRQAPGKERELVAAISKSGGRTYYADSVKRRFTISRDNAKKTVYLEMNSLKPEETAVYYCAALPLYSQDYDYWGPGTQVTVSS | high polyreactivity |
| QVQLVESGGGLVQAGGSLRLSCAASGSTFWWYAMGWYRQAPGKERELVADITTGGSTNYADSVKGRFTISRDNAKNTVYLQMNSLKPEDTAVYYCNADGVTPYTWRLRYFKYHFDYWGQGTQVTVSS | low polyreactivity |
| QVQLVESGGGLVQAGGSLRLSCAASGRIFYYYAMGWYRQAPGKERELVATISSSGGSTYYADSVRGRFTISRDNAKNTVYLQMNSLKPEDTAVYYCAARVPLWSRGRTTWPKSQYEYWGQGTQVTVSS | high polyreactivity |
| QVQLQESGGGLVQAGGSLRLSCAASGSIFDYVSMGWYRQAPGEERELVVTITLGSNTYYADSVKGRFTISSDIAKNTVYLQMNSLNPEDTAVYYCAPSALWGYVYPYWGLGTQVTVSS | high polyreactivity |
| QVQLVESGGGLVQAGGSLRLSCAASGIIFHKYAMGWYRQAPGTERELVAAISRSGGRTYYADSVKGRFTISRDNAKNTVYLQMNSLKPEDTAVYYCAARYLKPGGAYDSWGQGTQVTVSS | high polyreactivity |
| QVQLVESGGGLVQAGGSLRLSCAASGSLFSWYTKGWYRQAPGKERELVAAISRSGGRTYYADSVKGRFTISRDNAKNTVYLQMNSLKPEDTAVYSCAARVYSYYGSRGQRYDYWGQGTQVTVSS | high polyreactivity |
| QDQLVESGGGLVQAGGSLRLSCAASGITFQRYAMGGYRQAPGKERELVAVINFRGSNTFYADSVKGRFTISRDNAKNSVYLQMNSLIPEDTAVYYCAASYVIDIRGYGYWGQGTQVTVSS | low polyreactivity |
| QVQLVESGGGLVQAGGSLRISCAASGRIFRGYAMGWYRQAPGKEMELVAGITTSGGDTSYADSVKGRFTISRDNAKNTVYLQMNSLKPEDTAVYYCNASPFYYRPRYPMDYWGQGTQVTVSS | high polyreactivity |
| QGQLVESAGGLVQAAGSLRLSCAASGITFHYYAMGWYRQAPGKERELVAAIDGSDTDTYYADSVKGRFTISRDNAKNTVYLQMNSLKQEDTAVYYCAAEYTYAALARNDDYWGQCTQVTVSS | high polyreactivity |
| QVQLQESGGGLVQAGGSLRLGCAASGNISDAGYMGWYRQAPGKEREFVAAIAAGSNTNYADSVKGRFTISRDNAKNTVNLQMNSLKPEDTAVFYCAVASYARVQYEYWGQGTQVTVNS | low polyreactivity |
| QFQLVESGGGLVQAGGSLRLSCAASGVIFEWYTMGWYRQAPGKERELVARISSDGSTTYADSVKGRFTLSRDNAKNTVYFEMNSLKREDTAVYYCAADVSYPGLKYIFDYWGQGTLVTVSS | low polyreactivity |
| QVQLVESGGGLVQAGVSLLLTCAASGRISFRYAMVWYRQAPGKERELVAAINRGGITNYADSVKGRFTISRDNAKNTVYLKMNSLKKEDTAVYYCAARYASPRYKSKMDYWGQGTQVTVSS | high polyreactivity |
| QVQLEESGGGLVHAGGILRLSCAASGYTFYYNAMGWYRQAPGKERELVAAISRSRDTTYYADSVKGRFTISRDNAKYTVYLQMYSLKPEDTEVYYCNAVVQVLADFQKYDYWGQGSQVTVSS | low polyreactivity |
| QVQLVESGGCLVHAGGSLRLSCAASGRIFYTYAMGWYRQSPGNESELVAAISSRTVSTKYADSVKGRFTISRDNAKYTVYLQMNSLKPEDTAVYYCNVYSLRYGYDYCGQGTQVTVSS | high polyreactivity |
| QVQLVESGRGLVQAGGSLRLSCAASGRTFNWYAKGWYRQAPGKERELVAAISSGGSTYYADSVKGRFTISRDNAKNTVYLQMNSLKPEDTAVYYCAAVTPSGAHRSAYHPISDYWGQGTQVTVSS | low polyreactivity |
| QVQLVESGGCLVQAGGSLRLSCAAYGSIFGGNAMGWYRQAPRKERELVAAITQSGDRTYYADSVKGRFTISRDNANNTFYFQMNSLKPEDTAVYYSAARSPRKYGSIGYYWGQGTQVTVSS | high polyreactivity |
| QVHLVESGGGLVQAGASLRLSCAASGITFRFNAMGWYRQAPGKEREFVAAITYSGDSTYYADSVKGRFTISRDNAKNTVYLQMNSLKPEDTAVYYCAADYYAISRRMFYYWGQGTQVTVSS | low polyreactivity |
| QVQLVESGGGLVQAGGSLRLSCAASGSIFDIYGMGWYRQAPGKERELVASISRGAGSTNYADSVKGRFTISRDNAKNTVYLQMNSLKPEDTAVYYCAAEVYVPDYFQHKFDVEYEYWGQGTQVTVSS | low polyreactivity |
| QVQRVESGGGIVQAGGSLRLSCAASGFIFRRYAMGWYRQAPGKERELVAAISSSGGRTTYADSVKGRFTISRDNAKNTVYLQMNSLKPEDTAVYYFNADLWPGNHDGYWGQGTQVSVSS | low polyreactivity |
| QVQLVESGGGLVQAGGSLRLSCAASGFTFKWYTMGWYRQAPGKERELVAGISRRGGSTYYADSVKGRFTISRDNAKNTFYLQMNSLKPEDTAVYYCAADSKLTKFYYWGQGTQVTVSS | high polyreactivity |
| QVQLVESGGGLVQAGGSLSLSCAASGRTFNSYAMGWYRQAPGKERELVAAISWSGGSTYYADSVKGRFTISRDNAKNTVYLQMNSLKPEDTAVFYCATERYQSSRYRSYWYPFDYWGQGTQVTVSS | low polyreactivity |
| QVQLVESGGGLVQAGGSLRLSCAASGITFLPYAMGWYRQAPGKERELVAAITRGGGSTYADSVKGRFTISRDNAKNSVYFQMISLKPEDTAVYYCAKLYGRGSWYEDYDYWGQGTQVTVSS | low polyreactivity |
| QVQLVESGGGLVQAGGSLRLSCAASGRIFGIYAMGWYRQAPGKERELVASITDGTITNYADSVKGRFTISRDNAKNTVYLQMNSLIPEDTAVYYCAAGTQAHAYVVRPIEMDYWGQGTQVTVSS | low polyreactivity |
| QVQLVESGGGLVQAGGSLRLSCAASGFTFRVNAMGWYRQAPGKERELVASITVSGGNTYYADSVKGRFTISRDNEKNTVYLLMNSLKPEDTAVYYCATDFSPVYYTRYDYWGQGTQVTVSS | low polyreactivity |
| QVQLVESGGGLVQAGGSLRLSCAASGIILVYNAMGWYRQAPGKERELVAAISSSGGTTYYADSVKGRFTISRDNAKNTVYLQMNSLKPEDTAVYYCNAALPVTRSERYGSDYWGQGTQVTVSS | low polyreactivity |
| QVQLVETGGGLVQAGGSLRLSCAASGFTFASYAMGWYRQAPGKERELVAAITWGTGTTSYADSVKGRFTISRDNAKNTVYLQMNSLKPEDTAVYYCATRYRQITYRRRYDYWGQGTQVTVSS | low polyreactivity |
| QVQLVESGGGLVQAGGSLRLSCAASGNIFYRNAMGWYRQAPGKERELVAGITTSGDSTYYADSVKGRFTISRDNAKNTVYLQMNSLKPEDTAVYYCAASSHRYKYSSSYYYWGQGTQVTVSS | high polyreactivity |
